From paper PMC4718636

Target: hAgo2 (Homo sapiens), Q9UKV8
Assay: cleavage activity titration
Conditions: siRNA-bound hAgo2; remark: other sources report otherwise

Sequence of hAgo2 (Homo sapiens), Q9UKV8 (Q9UKV8 whole entry): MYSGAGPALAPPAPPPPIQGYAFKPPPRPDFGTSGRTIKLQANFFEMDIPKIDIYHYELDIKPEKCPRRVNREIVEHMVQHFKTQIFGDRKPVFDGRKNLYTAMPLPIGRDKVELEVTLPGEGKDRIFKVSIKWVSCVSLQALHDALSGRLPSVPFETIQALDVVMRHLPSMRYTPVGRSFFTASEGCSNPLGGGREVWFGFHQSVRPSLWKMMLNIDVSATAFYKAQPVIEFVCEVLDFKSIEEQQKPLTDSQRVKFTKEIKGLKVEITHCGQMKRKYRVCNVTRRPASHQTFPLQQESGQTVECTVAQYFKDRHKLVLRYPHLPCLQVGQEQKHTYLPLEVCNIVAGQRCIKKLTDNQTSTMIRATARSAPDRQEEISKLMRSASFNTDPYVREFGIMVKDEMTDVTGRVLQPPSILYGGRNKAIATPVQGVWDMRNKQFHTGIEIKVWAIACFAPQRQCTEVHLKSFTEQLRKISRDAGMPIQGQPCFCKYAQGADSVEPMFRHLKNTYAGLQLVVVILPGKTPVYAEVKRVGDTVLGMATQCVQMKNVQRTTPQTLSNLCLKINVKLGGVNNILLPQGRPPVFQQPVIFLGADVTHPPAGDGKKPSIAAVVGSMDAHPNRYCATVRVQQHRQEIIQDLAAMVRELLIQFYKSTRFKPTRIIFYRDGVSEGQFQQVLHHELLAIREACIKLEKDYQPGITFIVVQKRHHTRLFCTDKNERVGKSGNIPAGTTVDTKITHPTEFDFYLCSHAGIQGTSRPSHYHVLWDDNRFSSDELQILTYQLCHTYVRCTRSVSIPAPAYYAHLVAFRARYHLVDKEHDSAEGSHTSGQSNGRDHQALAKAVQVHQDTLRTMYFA

- Kd: 2000 nM
B1: hTRBP, Q15633 (protein)
chain: MSEEEQGSGTTTGCGLPSIEQMLAANPGKTPISLLQEYGTRIGKTPVYDLLKAEGQAHQPNFTFRVTVGDTSCTGQGPSKKAAKHKAAEVALKHLKGGSMLEPALEDSSSFSPLDSSLPEDIPVFTAAAAATPVPSVVLTRSPPMELQPPVSPQQSECNPVGALQELVVQKGWRLPEYTVTQESGPAHRKEFTMTCRVERFIEIGSGTSKKLAKRNAAAKMLLRVHTVPLDARDGNEVEPDDDHFSIGVGSRLDGLRNRGPGCTWDSLRNSVGEKILSLRSCSLGSLGALGPACCRVLSELSEEQAFHVSYLDIEELSLSGLCQCLVELSTQPATVCHGSATTREAARGEAARRALQYLKIMAGSK
